Source: patent US20220089784A1 (University of California, published 2022)

T1: BoNT/F1 (proteolytic BoNT/F) (Clostridium botulinum, UniProt A7GBG3 1-1278)
T1 sequence: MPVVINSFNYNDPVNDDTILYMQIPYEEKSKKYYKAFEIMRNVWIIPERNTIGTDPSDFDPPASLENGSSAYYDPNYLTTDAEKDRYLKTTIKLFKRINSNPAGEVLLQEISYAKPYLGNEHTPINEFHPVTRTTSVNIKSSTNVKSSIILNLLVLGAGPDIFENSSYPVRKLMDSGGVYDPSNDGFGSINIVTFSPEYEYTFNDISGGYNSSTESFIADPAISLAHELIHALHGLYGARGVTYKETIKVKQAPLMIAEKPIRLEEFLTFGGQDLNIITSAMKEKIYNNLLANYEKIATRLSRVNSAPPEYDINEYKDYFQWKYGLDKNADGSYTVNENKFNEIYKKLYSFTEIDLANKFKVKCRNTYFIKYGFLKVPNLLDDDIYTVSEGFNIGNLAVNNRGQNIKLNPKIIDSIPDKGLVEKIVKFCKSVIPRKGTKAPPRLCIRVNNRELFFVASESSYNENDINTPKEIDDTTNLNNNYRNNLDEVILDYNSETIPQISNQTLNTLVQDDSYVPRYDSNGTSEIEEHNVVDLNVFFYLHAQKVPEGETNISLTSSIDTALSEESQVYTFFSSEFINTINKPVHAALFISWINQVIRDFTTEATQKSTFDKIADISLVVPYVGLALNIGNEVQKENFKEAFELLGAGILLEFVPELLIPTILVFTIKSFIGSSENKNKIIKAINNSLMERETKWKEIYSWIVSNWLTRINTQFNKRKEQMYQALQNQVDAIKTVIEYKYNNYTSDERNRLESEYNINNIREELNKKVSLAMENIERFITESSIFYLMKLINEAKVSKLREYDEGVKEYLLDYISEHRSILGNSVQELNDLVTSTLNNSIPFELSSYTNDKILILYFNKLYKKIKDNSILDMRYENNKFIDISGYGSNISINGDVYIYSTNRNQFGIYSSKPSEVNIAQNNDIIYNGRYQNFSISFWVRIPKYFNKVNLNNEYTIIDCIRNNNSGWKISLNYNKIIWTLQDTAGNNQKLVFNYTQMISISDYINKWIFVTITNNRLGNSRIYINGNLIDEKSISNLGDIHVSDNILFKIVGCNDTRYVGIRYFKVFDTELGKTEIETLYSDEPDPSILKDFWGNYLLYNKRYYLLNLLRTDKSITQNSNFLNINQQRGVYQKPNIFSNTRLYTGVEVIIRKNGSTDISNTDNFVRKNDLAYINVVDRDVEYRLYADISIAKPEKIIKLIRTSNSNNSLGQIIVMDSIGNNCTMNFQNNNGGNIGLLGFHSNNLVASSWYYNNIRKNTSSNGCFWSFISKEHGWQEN

B1: 6F4 IgG (antibody, V domains shown)
VH: EVQLQESGPELVKPGASVKISCKTSGYTFTDYYMNWVKQSHGKSLEWIGDINPNNGGATYNQKFKGKATLTVDKSSRTLYMELRSLTSEDSAVYHCACGPYFFDFWGQGTTLTVSS
VL: QIVLTQSPATMSASPGEKVTITCSASSSVNYMHWYQQKPGSSPKLWIYDTSSLAPGVPARFSGSGSGTSYSLTISSMEAEDAASYFCHQWSSYPYTFGGGTKLEIK
notes: IgG from scFv V genes
B2: 6F6 IgG (antibody, V domains shown)
VH: EVQLLESGGGLVKPGGSRKLSCEASGFTFSDYGMHWVRQAPEKGLEWVGYISSGSRIIYYADTVKGRITISRDNAKNTLFLQMTSLRSEDTAMYYCVRGTWVFDYWGQGTTLTVSS
VL: DIVMTQSPASLAVSLGQRATISCRASESVDNYGISFMNWFQQKPGQPPKLLIYAASNLESGIPARFSGSGSGTDFTLTINPVEADDVATYYCQQSNEDPYTFGGGTKLEIK
notes: IgG from scFv V genes
B3: 6F7 IgG (antibody, V domains shown)
VH: QVQLQESGPGLVKPSQTVSLTCTVAGYSITNGNHWWNWIRQVSGSKLEWIGYITSSGSTDSNPSLKSRISITRDTSKNQLFLQLNSVTTEDIATYYCARSSNYFFHVLDYWGQGTSVTVSS
VL: DIVLTQTPAIMSASPGEKVTMTCSASSSVSYMHWFQQKPGTSPKLWIYSTSNLASGVPARFSGSGSGTSYSLTISRMEAEDAATYYCQQRSSYPPTFGGGTRLEIK
notes: IgG from scFv V genes
B4: 6F8 IgG (antibody, V domains shown)
VH: QVQLKQSGAELVKSGASVKLSCTASGFNIKDFYMHWVKQRTEQGLEWIGRIDPEDGETKYAPKFQGKATITADTSSNTAYLQLSSLTSEDTAVYYCVRDRDYDWGQGTTLTVSS
VL: not shown
notes: IgG from scFv V genes
B5: 6F9 IgG (antibody, V domains shown)
VH: QVQLQQPGAELVKPGASVKLSCKASGNSFASSWMHWVKQRPGQGLEWIGMIHPYSGSTNFNEKFKSKATLSVDKSSSTAYMQLSSLTSEDSAVYYCAMNWDWYFDVWGTGTTVTVSA
VL: DVVMTQSPKFMSTSVGDRVSITCKASQDVGTAVAWYQQKPGQSPKLLIYWASTRHTGVPDRFTGSGSGTDFTLTISDVLSEDLADYFCQQYGGYPTFGGGTKLEIK
notes: IgG from scFv V genes
B6: 6F10 IgG (antibody, V domains shown)
VH: EVQLQESGGDLVKPGGSLKLSCAASGFTFSYYGMSWVRQTPDKRLEWVATISSGGTYTYYPDSVKGRFTISRDNAKNTLYLQMSSLSSEDTAMYYCARRRSYDSVYWYFDVWGAGTSVTVSS
VL: DIVLTQSPAITAASLGQKVTITCSASSSGSYIHWYQQKSGTSPKLLIYRTSNLASGVPSRFSGSGSGTFYSLTISSVEAEDAADYFCHQWSSYPTFGGGTKLEIK
notes: IgG from scFv V genes

What follows are binders tested against T1, BoNT/F1 (proteolytic BoNT/F) (assay: IgG).

| Binder | Kd [nM] |
| --- | --- |
| B1 | 1.17 |
| B2 | 0.048 |
| B3 | 0.57 |
| B4 | 0.22 |
| B5 | 0.26 |
| B6 | 0.07 |
